Measured values from the supplement of paper PMC10567573.
± gives the standard deviation.

Test: protein stability index of a GFP-peptide fusion (GPS, HEK-293T) (PSI 1-6); higher = more stable
[1] = treatment: DMSO, c terminus: a fixed tail appended
[2] = treatment: MLN4924 1 uM, 8 h, c terminus: a fixed tail appended
[3] = treatment: DMSO, c terminus: native
[4] = treatment: MLN4924 1 uM, 8 h, c terminus: native
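Further: 24-mer peptide tiles fused after GFP, lentivirally expressed, FACS-sorted into six equal bins by GFP/DsRed ratio, decoded by Illumina sequencing, PSI is the read-weighted mean bin number.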

Sequence | protein stability index [1] | protein stability index [2] | protein stability index [3] | protein stability index [4]
ESKGCFANTTPSGKSVSSSSSVET [SPATS1] | 5.18 ± 0.14 | 5.19 ± 0.12 |  | 
LDVGATEGQDLQHISNQKMPTGPP [DRICH1] | 5.18 ± 0.094 | 5.21 ± 0.091 |  | 
SEEAPGGTELIQTPLASSTDHQTP [HDAC6] | 5.49 ± 0.4 | 5.51 ± 0.34 |  | 
SSTSCLMPSKLFAGLVHVKQCIVA [CRYL1] | 2.44 ± 0.31 | 2.11 ± 0.25 |  | 
LESRFQSKSGYLRYSCESRIRSYL [DFFB] | 2.46 ± 0.12 | 2.39 ± 0.24 |  | 
RPAQAIGTQPRATKHKCRQLTKAS [SPACA9] | 4.47 ± 0.16 | 4.44 ± 0.34 |  | 
VEILMILFAFMLVYPKEFHLNRGN [PPEF2] |  | 3.58 ± 0.62 |  | 
KHGFSWAVPKFMKRIKVPDYKDRS [DLC1] | 2.56 ± 0.08 | 2.94 ± 0.31 |  | 
QAQIHGLPVPPTPGLLSLATTSAS [TFE3] | 3.86 ± 0.11 | 3.87 ± 0.18 |  | 
QPPLTYKRFQTLISKMEPLEIPVE [CRY1] | 2.97 ± 0.39 | 2.79 ± 0.34 |  | 
IANPNSLHHVKTMWYPEIKHFCPR [RHOBTB2] | 2.36 ± 0.25 | 2.64 ± 0.2 |  | 
DRMARPSGRSGHNTRGTGSSSSGV [CSNK1G3] | 4.87 ± 0.13 | 5.03 ± 0.098 |  | 
VQPMDRLPYQHFSAHFTSGPLVPR [TBX5] | 2.88 ± 0.27 | 2.88 ± 0.33 |  | 
AFPFNMQELVLKVRIQNPSLREND [ANKRD40] | 2.41 ± 0.46 | 2.33 ± 0.41 |  | 
QLCGKTFLTLEKFTIHNYSHSRER [PLAGL1] | 2.15 ± 0.57 | 2.27 ± 0.27 |  | 
EALQNFFSLACSLMGPSRMSLFSL [M1AP] | 2.89 ± 0.75 | 3.09 ± 0.74 |  | 
KTSLLDQLTNTSGTVIGVTSCIVI [NETO1] | 3.14 ± 0.51 | 2.76 ± 0.43 |  | 
TPPTPAPTSGIVGALMEVMQKRSK [WASL] | 4.55 ± 0.12 | 4.65 ± 0.25 |  | 
NVEAQLSEIRCDLERQNQEYQVLL [KRT36] | 3.58 ± 0.29 | 3.53 ± 0.21 |  | 
SLPASSYSQDPVYANGGLNYSYRG [NOL4L] | 3.44 ± 0.12 | 3.62 ± 0.15 |  | 
RKKSADVLALADEAGYYFFNGNYK [ADAMTSL2] | 3 ± 0.22 | 3.05 ± 0.33 |  | 
LDSGIHSGATTTAPSLSGKGNPEE [CTNNB1] | 5.64 ± 0.29 | 5.54 ± 0.21 |  | 
MLLPQLCWLPLLAGLLPPVPAQKF [SMOC2] | 3.51 ± 0.69 | 3.67 ± 1.4 |  | 

Sequence | protein stability index [1] | protein stability index [2] | protein stability index [3] | protein stability index [4]
ELDRWLYHLEKQTALLGGPRRCHS [PLEKHN1] | 2.24 ± 0.19 | 2.17 ± 0.39 |  | 
PSSPGRFTKETTQKNFNNLYGTKG [TRIM29] | 4.2 ± 0.27 | 4.37 ± 0.085 |  | 
AVEDGLQQFKQYSRHVTTRAALTY [M1AP] | 3.14 ± 0.42 | 3.1 ± 0.23 |  | 
SGLEKEVQRLTSRAARDYKIQNHG [FCHSD1] | 3.89 ± 0.16 | 3.61 ± 0.38 |  | 
IERCIFPERIYQGSSGSYFVKDPQ [PI4K2A] | 3.25 ± 0.22 | 3.2 ± 0.35 |  | 
HAYIHSVQFSHHVFLNLHTLKFYC [USP39] | 3.33 ± 0.42 | 3.04 ± 0.56 |  | 
KRLSRFDIEMSMRGDIFERIVHLQ [NLN] | 1.84 ± 0.33 | 2 ± 0.026 |  | 
EEVDEDGSGTIDFEEFLVMMVRQM [TNNC2] | 3.52 ± 0.15 | 3.79 ± 0.44 |  | 
DDHSVRVAREDVRESCPPLGLETL [CPXM2] | 4.85 ± 0.37 | 4.92 ± 0.18 |  | 
LTSLHHFMHSRNLYILGNFMQLKC [PNLIPRP1] | 2.89 ± 0.32 | 2.5 ± 0.35 |  | 
TCADRDNLTRRFSDLGFEVKCFND [CASP6] | 2.96 ± 0.32 | 3.24 ± 0.21 |  | 
WTNRLCHQEMGSKKTVTQEDRGW [SPAG8] |  |  | 3.08 ± 0.64 | 2.79 ± 0.41
NSKPQDLTDAYGPPSNFLEIDIFN [SNX12] | 3.63 ± 0.18 | 3.83 ± 0.24 |  | 
EAAEAETAKDNGEAEDQEEKEDAE [SRPK2] | 5.55 ± 0.4 | 5.73 ± 0.29 |  | 
HECKLTQEILELIDREVDLMMRGV [IQUB] | 2.88 ± 0.2 | 3.17 ± 0.67 |  | 
GGMALGVAGLAGLIGLAVSKSKS [FIS1] |  |  | 2.35 ± 0.34 | 1.78 ± 0.27
TMKESLTTREIRRQEAIYEMSRGE [NET1] | 4.46 ± 0.26 | 4.68 ± 0.33 |  | 
VETSAKNAININELFIEISRRIPS [RAB22A] | 2.34 ± 0.21 | 2.29 ± 0.52 |  | 
ESFILDQDDLENPMLETASKLLLS [ANKRD17] | 3.99 ± 0.22 | 4.1 ± 0.38 |  | 
SGSAVSTAPQQKPIGKISKNKKKK [SRPK2] | 4.77 ± 0.43 | 5.07 ± 0.2 |  | 
EEVSSTVHIETFTTRHGEVGSALH [C10orf62] | 4.43 ± 0.36 | 4.57 ± 0.19 |  | 
SEMAEDLCKIGSERSLVLDRLASN [IKZF1] | 4.56 ± 0.38 | 4.73 ± 0.2 |  | 
